How the values were obtained:
Test in all cases: cell-based or functional assay
[1] = molecular target: T1, EphB4(h) (human, UniProt P54760 561-987, limits assumed)
T1 sequence (looked up): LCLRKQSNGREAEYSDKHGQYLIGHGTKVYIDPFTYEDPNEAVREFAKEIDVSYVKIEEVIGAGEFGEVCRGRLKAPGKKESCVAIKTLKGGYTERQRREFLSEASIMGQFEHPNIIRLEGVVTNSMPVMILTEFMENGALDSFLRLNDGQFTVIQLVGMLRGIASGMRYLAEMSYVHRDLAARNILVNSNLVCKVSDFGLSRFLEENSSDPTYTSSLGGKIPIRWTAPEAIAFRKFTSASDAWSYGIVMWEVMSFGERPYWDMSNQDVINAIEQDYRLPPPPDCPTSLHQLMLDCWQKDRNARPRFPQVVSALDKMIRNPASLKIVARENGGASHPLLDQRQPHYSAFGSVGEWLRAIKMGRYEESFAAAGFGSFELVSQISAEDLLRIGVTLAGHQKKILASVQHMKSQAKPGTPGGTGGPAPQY

[2] = molecular target: mTOR/FKBP12(h) (human, UniProt P42345 1362-2549; P62942 1-108)
[3] = molecular target: Ab1(h) (human, UniProt P00519 27-1130, limits assumed)
[4] = molecular target: T2, ARK5(h) (human, UniProt O60285 1-661, limits assumed)
T2 sequence (looked up): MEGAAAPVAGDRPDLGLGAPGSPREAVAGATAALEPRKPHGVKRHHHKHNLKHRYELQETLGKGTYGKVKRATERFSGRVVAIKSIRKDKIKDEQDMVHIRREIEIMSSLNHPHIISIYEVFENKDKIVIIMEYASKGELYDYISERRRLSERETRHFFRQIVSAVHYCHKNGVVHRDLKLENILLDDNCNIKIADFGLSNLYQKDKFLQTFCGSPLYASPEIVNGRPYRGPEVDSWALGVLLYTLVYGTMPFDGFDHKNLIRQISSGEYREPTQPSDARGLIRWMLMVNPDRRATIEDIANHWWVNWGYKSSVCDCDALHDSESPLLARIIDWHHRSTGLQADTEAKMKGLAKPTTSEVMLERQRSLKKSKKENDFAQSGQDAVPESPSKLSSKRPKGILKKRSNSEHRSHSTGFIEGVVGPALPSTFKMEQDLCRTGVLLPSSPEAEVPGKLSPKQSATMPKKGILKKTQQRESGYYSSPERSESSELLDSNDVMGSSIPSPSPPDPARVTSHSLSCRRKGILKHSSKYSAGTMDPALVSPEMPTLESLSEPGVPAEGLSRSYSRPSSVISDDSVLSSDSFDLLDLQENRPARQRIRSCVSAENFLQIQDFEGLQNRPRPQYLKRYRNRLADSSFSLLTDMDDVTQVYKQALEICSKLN

[5] = molecular target: T3, PKCε(h) (human, UniProt Q02156 1-737)
T3 sequence (looked up): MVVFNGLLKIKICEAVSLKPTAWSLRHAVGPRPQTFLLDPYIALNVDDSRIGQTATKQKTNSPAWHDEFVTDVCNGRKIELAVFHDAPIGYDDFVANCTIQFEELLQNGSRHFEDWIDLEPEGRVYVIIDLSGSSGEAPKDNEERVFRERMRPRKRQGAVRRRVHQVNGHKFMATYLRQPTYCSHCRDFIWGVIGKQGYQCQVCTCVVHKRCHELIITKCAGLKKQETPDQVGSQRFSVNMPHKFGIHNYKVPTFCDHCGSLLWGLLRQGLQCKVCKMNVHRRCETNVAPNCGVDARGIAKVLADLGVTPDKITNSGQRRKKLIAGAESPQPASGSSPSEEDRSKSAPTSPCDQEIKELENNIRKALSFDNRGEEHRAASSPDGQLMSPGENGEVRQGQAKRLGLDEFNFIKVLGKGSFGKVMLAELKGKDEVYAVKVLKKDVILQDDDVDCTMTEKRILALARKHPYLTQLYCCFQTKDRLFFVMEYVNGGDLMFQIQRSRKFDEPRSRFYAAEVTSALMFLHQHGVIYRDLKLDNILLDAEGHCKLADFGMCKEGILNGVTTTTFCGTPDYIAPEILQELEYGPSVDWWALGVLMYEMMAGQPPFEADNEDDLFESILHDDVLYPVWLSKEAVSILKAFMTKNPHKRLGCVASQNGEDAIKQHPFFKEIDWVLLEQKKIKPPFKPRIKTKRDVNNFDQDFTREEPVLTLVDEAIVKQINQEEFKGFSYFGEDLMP

[6] = molecular target: ASK1(h) (human, UniProt Q99683 649-946, limits assumed)
[7] = molecular target: T4, EphA4(h) (human, UniProt P54764 570-986, limits assumed)
T4 sequence (looked up): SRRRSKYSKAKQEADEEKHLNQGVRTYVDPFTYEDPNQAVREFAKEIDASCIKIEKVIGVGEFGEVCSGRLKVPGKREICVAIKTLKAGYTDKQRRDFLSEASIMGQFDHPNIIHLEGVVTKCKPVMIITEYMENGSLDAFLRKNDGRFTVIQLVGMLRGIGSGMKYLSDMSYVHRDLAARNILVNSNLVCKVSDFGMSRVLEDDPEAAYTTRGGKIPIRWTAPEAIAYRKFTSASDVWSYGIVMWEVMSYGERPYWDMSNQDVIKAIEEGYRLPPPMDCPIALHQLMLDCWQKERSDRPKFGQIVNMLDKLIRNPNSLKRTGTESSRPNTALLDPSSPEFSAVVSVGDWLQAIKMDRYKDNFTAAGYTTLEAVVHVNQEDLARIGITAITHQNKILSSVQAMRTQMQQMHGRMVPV

[8] = molecular target: Syk(h) (human, UniProt P43405 1-635, limits assumed)
[9] = molecular target: ROCK-I(h) (human, UniProt Q13464 17-535)
[10] = molecular target: Ab1(H396P)(h) (human, UniProt P00519 27-1130, limits assumed)
Also: test concentration or dose not given here.

Sequence of Ab1(h) (P00519 27-1130 limits assumed): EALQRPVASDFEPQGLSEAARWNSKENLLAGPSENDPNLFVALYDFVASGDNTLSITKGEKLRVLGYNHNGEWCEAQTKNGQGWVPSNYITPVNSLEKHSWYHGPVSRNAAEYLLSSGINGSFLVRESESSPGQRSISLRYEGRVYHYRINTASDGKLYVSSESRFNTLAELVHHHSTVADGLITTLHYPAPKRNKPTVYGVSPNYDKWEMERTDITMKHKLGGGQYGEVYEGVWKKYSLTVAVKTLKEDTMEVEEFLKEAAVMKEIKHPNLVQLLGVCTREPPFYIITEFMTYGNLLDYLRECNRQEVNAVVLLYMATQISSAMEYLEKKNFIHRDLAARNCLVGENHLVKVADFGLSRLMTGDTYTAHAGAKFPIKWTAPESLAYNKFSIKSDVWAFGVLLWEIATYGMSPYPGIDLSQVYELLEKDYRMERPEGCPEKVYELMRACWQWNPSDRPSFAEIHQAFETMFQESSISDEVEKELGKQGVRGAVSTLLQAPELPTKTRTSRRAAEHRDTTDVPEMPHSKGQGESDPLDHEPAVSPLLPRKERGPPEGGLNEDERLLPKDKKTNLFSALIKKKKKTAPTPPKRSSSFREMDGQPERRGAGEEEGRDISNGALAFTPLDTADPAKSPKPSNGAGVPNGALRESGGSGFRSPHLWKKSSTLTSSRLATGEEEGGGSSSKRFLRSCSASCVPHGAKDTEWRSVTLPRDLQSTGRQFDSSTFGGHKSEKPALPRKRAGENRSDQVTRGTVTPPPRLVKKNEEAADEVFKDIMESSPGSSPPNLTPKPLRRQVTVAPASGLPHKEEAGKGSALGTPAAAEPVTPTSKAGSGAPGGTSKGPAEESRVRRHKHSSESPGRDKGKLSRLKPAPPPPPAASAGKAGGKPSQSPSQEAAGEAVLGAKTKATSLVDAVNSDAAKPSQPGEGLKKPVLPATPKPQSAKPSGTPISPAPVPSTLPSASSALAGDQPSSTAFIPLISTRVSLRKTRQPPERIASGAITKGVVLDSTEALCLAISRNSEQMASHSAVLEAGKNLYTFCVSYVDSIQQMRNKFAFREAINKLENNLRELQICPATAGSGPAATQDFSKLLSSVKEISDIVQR
Sequence of Ab1(H396P)(h) (P00519 27-1130 H396P limits assumed): as the sequence (P00519 27-1130 limits assumed) above, with H370P counted along it
Sequence of ASK1(h) (Q99683 649-946 limits assumed): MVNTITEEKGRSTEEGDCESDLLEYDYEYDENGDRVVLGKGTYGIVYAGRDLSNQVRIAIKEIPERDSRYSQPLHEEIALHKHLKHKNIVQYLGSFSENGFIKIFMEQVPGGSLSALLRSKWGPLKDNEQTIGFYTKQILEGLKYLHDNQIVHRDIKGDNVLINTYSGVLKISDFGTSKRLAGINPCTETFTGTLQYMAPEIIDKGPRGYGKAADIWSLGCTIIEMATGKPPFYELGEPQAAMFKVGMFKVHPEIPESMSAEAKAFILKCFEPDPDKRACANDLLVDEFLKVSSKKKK
Sequence of mTOR/FKBP12(h) (P42345 1362-2549 limits assumed, chain 1 of 2): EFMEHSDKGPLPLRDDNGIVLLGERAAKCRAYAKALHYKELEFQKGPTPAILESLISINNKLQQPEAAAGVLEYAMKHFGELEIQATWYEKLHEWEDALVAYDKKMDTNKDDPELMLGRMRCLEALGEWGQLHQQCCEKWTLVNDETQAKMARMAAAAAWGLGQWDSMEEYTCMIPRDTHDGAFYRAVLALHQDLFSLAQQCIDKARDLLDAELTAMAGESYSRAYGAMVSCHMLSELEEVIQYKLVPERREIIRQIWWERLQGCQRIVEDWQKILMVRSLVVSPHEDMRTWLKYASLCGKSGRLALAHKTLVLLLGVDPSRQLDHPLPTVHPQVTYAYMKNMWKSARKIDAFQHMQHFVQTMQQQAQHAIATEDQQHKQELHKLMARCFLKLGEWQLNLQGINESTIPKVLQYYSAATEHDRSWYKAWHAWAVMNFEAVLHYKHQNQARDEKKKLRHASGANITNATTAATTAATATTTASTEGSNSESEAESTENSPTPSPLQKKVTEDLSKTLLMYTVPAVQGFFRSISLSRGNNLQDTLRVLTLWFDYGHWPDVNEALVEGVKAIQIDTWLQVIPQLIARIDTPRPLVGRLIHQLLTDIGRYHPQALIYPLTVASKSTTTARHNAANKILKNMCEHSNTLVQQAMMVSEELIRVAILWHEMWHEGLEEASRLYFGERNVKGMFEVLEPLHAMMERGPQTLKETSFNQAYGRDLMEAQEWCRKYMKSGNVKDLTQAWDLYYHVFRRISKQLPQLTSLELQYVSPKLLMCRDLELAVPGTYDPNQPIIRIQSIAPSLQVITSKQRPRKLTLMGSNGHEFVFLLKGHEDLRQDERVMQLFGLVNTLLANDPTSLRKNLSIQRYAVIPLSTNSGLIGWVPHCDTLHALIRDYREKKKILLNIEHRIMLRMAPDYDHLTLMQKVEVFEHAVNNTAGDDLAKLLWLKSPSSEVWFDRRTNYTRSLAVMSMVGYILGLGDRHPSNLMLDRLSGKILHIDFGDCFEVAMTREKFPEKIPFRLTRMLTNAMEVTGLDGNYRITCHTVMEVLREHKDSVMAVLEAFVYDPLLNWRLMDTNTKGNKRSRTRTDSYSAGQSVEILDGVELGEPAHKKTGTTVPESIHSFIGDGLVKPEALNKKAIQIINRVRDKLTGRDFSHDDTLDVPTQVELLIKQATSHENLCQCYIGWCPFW
Sequence of mTOR/FKBP12(h) (P62942 whole entry, chain 2 of 2): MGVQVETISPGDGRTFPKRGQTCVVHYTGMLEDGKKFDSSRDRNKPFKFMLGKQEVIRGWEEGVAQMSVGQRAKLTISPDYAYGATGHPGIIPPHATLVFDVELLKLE
Sequence of ROCK-I(h) (Q13464 17-535 limits assumed): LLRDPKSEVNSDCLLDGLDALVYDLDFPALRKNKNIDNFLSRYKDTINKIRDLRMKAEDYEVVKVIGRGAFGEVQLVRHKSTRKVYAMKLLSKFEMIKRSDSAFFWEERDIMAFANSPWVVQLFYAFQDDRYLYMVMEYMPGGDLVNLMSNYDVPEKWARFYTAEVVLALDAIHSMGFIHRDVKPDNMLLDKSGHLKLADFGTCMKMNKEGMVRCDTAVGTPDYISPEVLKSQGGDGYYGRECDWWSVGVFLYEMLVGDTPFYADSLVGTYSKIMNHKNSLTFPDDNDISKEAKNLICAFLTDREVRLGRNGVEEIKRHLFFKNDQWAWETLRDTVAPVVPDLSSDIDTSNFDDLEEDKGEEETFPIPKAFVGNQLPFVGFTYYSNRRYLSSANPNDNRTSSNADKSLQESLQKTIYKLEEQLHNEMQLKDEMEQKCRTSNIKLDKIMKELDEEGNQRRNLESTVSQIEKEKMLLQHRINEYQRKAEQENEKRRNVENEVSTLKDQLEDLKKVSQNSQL

FAKLAARLYRKALARQLGVAA [MMI-0300]
% activity [1]: 44%
% activity [2]: 145%
% activity [3]: 69%
% activity [4]: 78%
% activity [5]: 79%
% activity [6]: 80%
% activity [7]: 88%
% activity [8]: 24%
% activity [9]: 79%
% activity [10]: 101%

KAFAKLAARLYRKALARQLGVAA [MMI-0400]
% activity [1]: 28%
% activity [2]: 125%
% activity [3]: 84%
% activity [4]: 69%
% activity [5]: 59%
% activity [6]: 69%
% activity [7]: 65%
% activity [8]: 9%
% activity [9]: 73%
% activity [10]: 105%
